The values below come from patent publication US20240299561A1, “HISTIDINE-SELECTIVE POLYMER REAGENTS” (Nektar Therapeutics, priority 2021, published 2024).

“And” between values parts separate entries of the source, which are not always exact repeats. Identical values can stand only once.

A short description of data set [1]: Hydrolytic stability of PEG conjugates with α-CBZ-histidine in PBS buffer, pH 7.4, 37° C. (HPLC).
Procedure: The reaction mixture was incubated at 37° C. and periodically analyzed by HPLC.
Data set [2] can be described thus: Reaction of histidine-linked conjugates with hydroxylamine (release of α-CBZ-His). The following applies: pH 7.3, 25° C., at approximately 42 hours. From the text: FIGS. 14A and 14B provide further evidence of the histidine-selectivity of exemplary polymer reagents provided herein, as illustrated by reaction of their corresponding histidine-linked conjugates with hydroxylamine. The data described below is representative of an indirect method for evaluating covalent attachment of a polymer reagent as provided herein with a histidine residue of an amino acid, peptide, polypeptide or other active histidine containing molecule, by displacement of the histidine-attached molecule resulting from reaction of the histidine-linked polymer conjugate with hydroxylamine.
More particularly, FIG. 14A is a plot illustrating reaction of a histidine conjugate prepared by reaction of Reagent 1 with model compound, α-CBZ-His, with hydroxylamine at pH 7.4, 25° C. […] Histidine conjugates such as the illustrative conjugates tested, when treated with hydroxylamine, undergo a reverse reaction such that the unconjugated histidine compound is released. […] By approximately 22 hours, 100% of the conjugate has disappeared with release of α-CBZ-His.

Take `COCCOCCOCCOCCOCCOCCOCCOCCOCCOCCOCCOCCOCCOCCOCCOCCOCCOCCOCCOCCOCCOCCOCCOCCOCCOCCOCCOCCOCCOCCOCCOCCOCCOCCOCCOCCOCCOCCOCCOCCOCCOCCOCCOCCOCCOCCOCCOCCOCCOCCOCCOCCOCCOCCOCCOCCOCCOCCOCCOCCOCCOCCOCCOCCOCCOCCOCCOCCOCCOCCOCCOCCOCCOCCOCCOCCOCCOCCOCCOCCOCCOCCOCCOCCOCCOCCOCCOCCOCCOCCOCCOCCOCCOCCOCCOCCOCCOCCOCCOCCOCCOCCOCCOCCOCCOCCOCCOCCOCCOCCOCCOCCOCCOCCN(C)C(=O)n1cnc(C[C@@H](NC(=O)OCc2ccccc2)C(=O)O)c1` [Conjugate 10, mPEG-N(CH3)—CO-α-CBZ-Histidine, 5 kDa]: in data set [1], the “degree of hydrolytic stability relative to the other conjugates tested” value is “highest degree of hydrolytic stability”; the “% Hydrolysis at day 10” value was 1.8% and 1.9%.
Consider “mPEG-N(CH2CF3)—CO-α-CBZ-Histidine, 5 kDa [Conjugate 14]”, for which the “degree of hydrolytic stability relative to the other conjugates tested” value in data set [1] is given as “moderate degree of hydrolytic stability”.
With “mPEG-Piperazine-CO— α-CBZ-Histidine, 5 kDa [Conjugate 11]”, the “percent of intact conjugate remaining” value in data set [2] is 4%. For the same compound, in data set [1], the “degree of hydrolytic stability relative to the other conjugates tested” value is recorded as “moderate degree of hydrolytic stability” and the “% Hydrolysis at day 10” value is 15.6%.
